Source: the nanobody polyreactivity screen of Harvey et al. (2022)

Test: yeast display, Sf9 membrane polyspecificity reagent, FACS + sequencing; frameworks hold sequencing errors
Summary of the method: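 After 36–48 hours of galactose induction, yeast (Saccharomyces cerevisiae BJ5465) displaying a synthetic nanobody library were stained at 4 °C for 1 hour with 10% biotinylated, detergent-solubilized Sf9 membrane reagent. Streptavidin microbeads enriched the stained cells before FACS sorting into low and high (top ~1%) gates on anti-HA and streptavidin fluorescence. Each clone's polyreactivity label reflects its gate of origin.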

Q: Which “polyreactivity (PSR sort gate)” value does the source give for “QVQLVESGGGLVQAGGSLRLICAASGRIFTYNAMGWYRQAPGKERELVARITSGGNTNYADSVKGRFTISRDNAKNTVYLQMNSLKPEDTAVYYCATGLFWFTNRYGSWGQGTQVTVSS” here?
A: low polyreactivity

Q: For “QVQLVESGGGLVQAGGSLRLSCAASGSTFHYYAMGWYRQAPGKERELVATITRRGDSTYYADSVKGRFTISRDKAKNTVYLQMNSLKPEDTAVYYCATRYWRSGYDWPYGYWGQGTQVTVSS”, which “polyreactivity (PSR sort gate)” value is on record?
A: high polyreactivity

Q: For “HVQLVESGGGLVQAGGSLRLSFAASGFTFRSYAMGWYRKAPGQERELVAAINWRGDSTYYADSVKGRFTISRDNAKNTVYLQMNSLNPEDTAVYYCNAYSGYIRRTASDYWGQGTQVTVSS”, which “polyreactivity (PSR sort gate)” value is on record?
A: high polyreactivity

Q: With “QVQLVESGGGLVQAGASLRLSCAASGFILYRYAMGWYRQAPGKERELVAAISRRGGSTYYADSVKGRFTISRDNAKNTVYLQMNSLKPEDTAVYYCAADARYTRYDYWGQGTQVTVSS” as the sequence, how does the “polyreactivity (PSR sort gate)” value read?
A: high polyreactivity

Q: With “QVQLVESGGGLVQAGGSLRLSCAASGSTFRYNTMGWYRQAPGKERELVAGITSGGGRTYADSVKGRFTISRDNAKNTVYLQMNSLKPEDTAVYYCAAGKYYFLSRYDSWGQGTQVTVSS” as the sequence, how does the “polyreactivity (PSR sort gate)” value read?
A: low polyreactivity

Q: For “QVQLVESARGLVKAGGSLLLSCAAYVSIFNHYAMGWYRQAPGKESELVARITNRSGNTYYADSVKGRFTISRDNAKNTGYLQLNSLKGEDTEVYYCAATKSLGRYNMDYWGPGTQVTVSS”, which “polyreactivity (PSR sort gate)” value is on record?
A: low polyreactivity

Q: With “QVQLVESGGGLVQAGGSLRLSCAASGSTLRWYTMGWYRQAPGKESELVATNSRGGTTNYADSVKGRFTISRDNAKNTVYLQMNSLKPEDTAVYYCASRDFWWSRRIFGYWGQGTHVTVSS” as the sequence, how does the “polyreactivity (PSR sort gate)” value read?
A: high polyreactivity

Q: For “QVQLVESGGGLVQAGGSLRLSCAASGFIFYSYDMGWYRQAPGKERELVAAIDSRGVNTYFADSVKGRFTISRDNAKNTVYLQMNSLKPEDTAVYYCNVDAITWWDWEDFDSWGQGTQVTVSS”, which “polyreactivity (PSR sort gate)” value is on record?
A: low polyreactivity

Q: For “QDQLVDSGGGLVQAGGSLRLICAASGYIIHDNAMGWYRQAPGKERELVAAINRGGSTHYADSVKGRFTISRDNAKNTVYLQMNSLKPEDTAVYYCAAKDGRSYYDRTPMDYWGQGTQVTVSS”, which “polyreactivity (PSR sort gate)” value is on record?
A: low polyreactivity

Q: For “QVQLVESGGGLVQAGGSLRLSCAASGFIFRAYAMGWYRQEPGKERELVAAISRGGGTYYADSVKGRFTISRDNAKNTVYLQMNSLKPEDTAVYYCAVDLLRRGFPTVVTTYDYWGQGTQVTVSS”, which “polyreactivity (PSR sort gate)” value is on record?
A: high polyreactivity

Q: With “QVQLVESGGGLVQAGGSLRLSCAASGSTFAYYTMGWYREAPGKERELVAAISKSGGSTTYADSVKGRFTISRDNAKNTVYLQMNSLKPEDTAVYYCAAYDRVENYNYWGQGTQVTVSS” as the sequence, how does the “polyreactivity (PSR sort gate)” value read?
A: high polyreactivity

Q: Which “polyreactivity (PSR sort gate)” value does the source give for “QVQLVESGGGLVQAGGSLRISCAASGRIFDYYAMGWYRQAPGKERELVAAISYSGGSTHYADSVKGRFTISRDNAKNTVYLQMNSLKPEDTAVYYCAGWAWSGVEYDYWGQGTQVTVSS” here?
A: low polyreactivity

Q: For “QVQLVESGGGLVQAGGSLRLSCAASGRTFNTYAMGWYRQAPGKERELVAAISKRGGSTYYADSVKGRFTISRDNAKNTVYLQMNSLKPEDTAVYYCNAKGNVRMYWGQGTQVTVSS”, which “polyreactivity (PSR sort gate)” value is on record?
A: high polyreactivity

Q: For “HVHQQGSGGGLAQARDSLRLSCAASGTNFSEYNNGLVSQGAGQRTRTCCRYWCWGNTYYADSAKGRLTSSRDNAKYNVDLQKNSLKPEDTAVYYCAFILPYPSRHIDRGQGTQVTVSS”, which “polyreactivity (PSR sort gate)” value is on record?
A: high polyreactivity

Q: For “QVQLEESGGGLVQAGGTLRLSCAASGRIFSGYAMGWYRQAPGKERELGAAISSSGGSTYYADSVQGRFTISRDNAKNTVYLQMNSLKPEDTAVYYCAASRSRYSVNWYNYWGQGTQVSVSS”, which “polyreactivity (PSR sort gate)” value is on record?
A: high polyreactivity

Q: Which “polyreactivity (PSR sort gate)” value does the source give for “QVQLVESGGGLVQAGGSLRLSCAASGSIFWWNAKGWYRQAPGKERELVAAINWSTGRTYYADSVKGRFTISRDNAKNTVYLQMNSLKPEDTAVYYCNADSKSSYYWYLWYNYWGQGTQVTVSS” here?
A: low polyreactivity

Q: Which “polyreactivity (PSR sort gate)” value does the source give for “QVQLVESGGGLVQAGGSLRLSCAASGITFWAYAMGWYRPAPGKARELVAAITSGGSTNYADSVKGRFTISRDNAKNTVYLQLNSLKPEDTAVYYCAADWAYYSTALDYWGQGTQVTVSS” here?
A: low polyreactivity

Q: For “QVQLVESGGGLVQAGGSLRLSCAASGSIFRFYAMGWYRQAPGKERELVAAITRRGGRTYYADSVKGRFTISRDNAKNTVYLQMNSLIPEDTAVYYCAAASKKPPSFEYNYWGQGTQLTVSS”, which “polyreactivity (PSR sort gate)” value is on record?
A: high polyreactivity

Q: Which “polyreactivity (PSR sort gate)” value does the source give for “QVQLVESGGGLVKAGGSLRLSCAASGRTFGYYAMGWYRQSPGKERELVADIRQSGGRTYYADSVKGRFRISRDNAKNTVYLQMNSLKPVDTAVYYCAARRSYLAYTYRRSYPMDSWGQGTQVTVSS” here?
A: high polyreactivity

Q: For “QVQLVESGGGLVQAGGSLRLSCAASGRTFQWYAMGWYRQAPGKERELVAGISFSGGSTYYADSVKGRFTISRDNAKNTVYLQMNSLKPEDTAVYYCAARRFSPGSSGHGYWGQGTQLTVSS”, which “polyreactivity (PSR sort gate)” value is on record?
A: high polyreactivity

Q: With “QVQLVESGGGLVQAGGSLRLSCAASGSTFIFNTMGWYRQAPGKERELVATITGSGGSTYYADSVKGRFTISRDNAKNTVYLQMNSLKPEDTAVYYCAAVGDQNEYDYWGQGTQVTVSS” as the sequence, how does the “polyreactivity (PSR sort gate)” value read?
A: low polyreactivity

Q: Which “polyreactivity (PSR sort gate)” value does the source give for “QDQLVESGGGLVQAGGSLRLSCAASGFTFYYNAMVLYRQAPGKERELVASISSNGTSTYYADSVKGRFTISLDNEKNTVYLHMNILKPEDTAVHYCNVDIFDPRTYVYWGQGTQVTVSS” here?
A: low polyreactivity

Q: Which “polyreactivity (PSR sort gate)” value does the source give for “QVQLVESGGGLVQAGGSLRLSCAASGSTFKGNAMGWYRQAPGKERELVAAINRSGTSTYYADSVKGRFTISRDNAKNTVYLQMNSLKPEDTAVYYCAKKYFGHRFDYWGQGTQVTVSS” here?
A: high polyreactivity

Q: With “QVQLVESGGGLVQAGGSLRLSCAASGIIFYGYAMGWYRQAPGKERELVATIRDSGAGTYYADSVKGRFTISRDNAKNTVYLQMNSLKPEDTAVYYCAATGWIRYDSWGQGTQVTVSS” as the sequence, how does the “polyreactivity (PSR sort gate)” value read?
A: low polyreactivity

Q: For “QVQLVESGGGLVQAGGSLRLSCAASGRIFSQNTMGWYRQAPGKERELVATITTSDGSTSYADSVKGRFTISRDNAKNTVYLQMNSLKPEDTAVYYCNARLSKYEGYWVWQYDYWGQGTQVTVSS”, which “polyreactivity (PSR sort gate)” value is on record?
A: low polyreactivity

Q: With “QVQLVESGGGLVQAGGSLRLSCAASGVTFTYYAMGWYRQAPGKERELVAAISKSGGRTYYADSVKGRFTISRDNAKNTVYLQMNSLKPEDTAVYYCAARITREGYYWGQGTQVTVSS” as the sequence, how does the “polyreactivity (PSR sort gate)” value read?
A: high polyreactivity

Q: With “QVQLVESGGGLVQAGGSLRLSCAASGSTFYPNAMGWYRQAPGKERELVAAIRTRGGSTYYADSVKGRFTISRDNAKNTVYLQMNSLKPEDTAVYYCAAEKRYRKAFDYWGQGTQVTVSS” as the sequence, how does the “polyreactivity (PSR sort gate)” value read?
A: low polyreactivity

Q: Which “polyreactivity (PSR sort gate)” value does the source give for “QVQLVESGGGLVQAGGSLRLSCAASGSTISYNAMGWYRQAPGKERELVAAIRTSGGRTYYADSVKGRFTISRDNAKNTVYLQMNSLKPEDTAVYYCAKRWVYRYGYEYWGQGTQVTVSS” here?
A: high polyreactivity

Q: For “QVQLVESGGGLVQAGGSLRLSCAASGLTFVRYTMGWYRQAPGKERELVADISSVGSTYYADSVKGRFTISRDNAKNTVYLQMNSLKPQDTAVYYCNTSYIIWYDSWGQGTQVTVSS”, which “polyreactivity (PSR sort gate)” value is on record?
A: low polyreactivity

Q: With “QVQLVESGGGLVQAGGSLRLSCAASGSTLGYYVMGWYRQAPGKERELVAAITGGGSTDYADSVKGRFTISRDNEKNTVYLQMNSLKPEDTAVYYCAAERTRTGQLFWWGPIYDYWGQGTQVTVSS” as the sequence, how does the “polyreactivity (PSR sort gate)” value read?
A: low polyreactivity

Q: For “QVQLVESGGGLVQAGGSLRLSCAASGFTFSFYARGWYIQAPGKERELVAAIDRSGGSTYYADSVKGRFTISRDNAKNTVYLQMNSLKPEDTAVYYCAATVFYGYYYWGQGTQVTVSS”, which “polyreactivity (PSR sort gate)” value is on record?
A: high polyreactivity

Q: With “QVQLVESGGGLVQAGCSLRLSCAASGRTFAYYAMGWYRQAPGKERELVAAISSGGGSTYYADSVKGRFTISRDNAKNTVYLQMNSLKPEDTAVYYCAKERSYSRSGGTYYYWGQGTQVTVSS” as the sequence, how does the “polyreactivity (PSR sort gate)” value read?
A: high polyreactivity

Q: With “QVKLVESGGGLVQAGGSLRLSCAASGGIFTDYTMGWSRQAPGKERELVAAITWTGGSTYYADSVKGRFTISRYNAKNTVYLQMNSLKPEDTAVYYCSADDYWVNLDYWGQGTQVNVSS” as the sequence, how does the “polyreactivity (PSR sort gate)” value read?
A: low polyreactivity

Q: With “QVQLVESGGGLVQAGGSLRLSCAASGSNFYNNVMGWYRQAPGKERELVAAINSGGRTYYADSVKGRFTISRDNAKNTVYLQMNSLKPEDTAVYYCAVGYGRAARMDYWGQGTQVTVSS” as the sequence, how does the “polyreactivity (PSR sort gate)” value read?
A: high polyreactivity

Q: Which “polyreactivity (PSR sort gate)” value does the source give for “QVQLVESGGGLVQAGGSLRLSCAASGRIFTAYAMGWYRQAPGKERELVARISKRGGSTYYADSVKGRFTISRDNAKNTVYLQMNSLKPEDTAVYYCAKSSWTFGAYNYWGQGTQVTVSS” here?
A: high polyreactivity

Q: For “QVQLVESGGGLVQAGGSLRLSCAASGSIFEDYAMGWYRQAPGKERELVAAIDWGDGDTYYADSVKGRFTISRDNAKNTVYLQMNSLKPEDTAVYYCAADLVGYSGYYFDEEYYWGQGTQVTVSS”, which “polyreactivity (PSR sort gate)” value is on record?
A: high polyreactivity

Q: For “QVQLEESGGGLVQAGGSLRLSCAATGYTFEANAMGWYRQAPGKERELVAVITWTGGSTYYADSVKGRFTISRDNAKYTVYLQMNSLKPEDTAVYYCAADGVVPGRFFWPAHEYDFWGQGTQVTVSS”, which “polyreactivity (PSR sort gate)” value is on record?
A: low polyreactivity

Q: With “QVQRVESVGGLVQAGGRLRLSCAASGRTFVYYTMGWYRQAPGKERELVAAISWNGDDTYYADSVKGRFTISRDNAKNTVYLQMNSLKPEDTAVYYCAKESYTDYDTYYYWGQGTQVTVSS” as the sequence, how does the “polyreactivity (PSR sort gate)” value read?
A: low polyreactivity

Q: With “QVQLVESGGGLVQAGGSLRLSCAASGSIFKFYAMGWYRQAPGKERELVAAINYNDINTYYADSVKGRFTISRDNAKNTVYLQMNRLKPEDTAVYYCNAELNVQYLYGYTGEYDYWGQGTQVTVSS” as the sequence, how does the “polyreactivity (PSR sort gate)” value read?
A: low polyreactivity

Q: Which “polyreactivity (PSR sort gate)” value does the source give for “QVQLVESGGGLVQAGGSLRLSCAASGSILPGNTMGWYRQAPGKERELVASISNTGGNTYYADSVKGRFTISRDNAKNTVYLQMNSLKPEDTAVYYCAARFSLWFPTVYWEGILDYWGQGTQVTVSS” here?
A: low polyreactivity

Q: For “QVQLVESGGCLVQAGGTLRLSGAASGRTFRADGMGWCRQPPGKEWELVAVISWRDGSTFYADSVQGRFTISRDTAKNTVYLQMNSLKPEDTAVYYCNKASQLYYIQGTYSYGYWGQGTQVTVSS”, which “polyreactivity (PSR sort gate)” value is on record?
A: low polyreactivity
